In patent US20260201039A1 (CENTESSA PHARMACEUTICALS UK, published 2026):
Each block holds one binder with its values, some of them ahead of it.

Assays:
[1] = molecular target: T1, human/cyno recombinant CD28 protein (human (printed as human/cyno), UniProt P10747 19-152); experiment: ELISA on coated huCD28, corrected absorbance (A450-570 nm)
T1 construct: Bought recombinant protein; also called human recombinant CD28; human/cyno CD28
Method: (§1) For ELISA binding assays, 384 well or 96 well plates were coated with 1 ug/ml and incubated overnight at 4° C., protected from light. Plates were washed twice with PBS/0.05% Tween 20 before blocking with block buffer (3% milk protein in PBS) for 1 hour at room temperature. Next, test agent or controls were loaded and incubated for 1 hour at room temperature. Plates were then washed three times with PBS/0.05% Tween 20. Finally, HRP conjugated secondary antibody, diluted 1/5,000 in block buffer, was added and incubated for 1 hour at room temperature. Plates were again washed three times with PBS/0.05% Tween before addition of TMB substrate and incubation for 6 minutes at room temperature. Subsequently, the reaction was stopped with stop solution. Absorbance was read at 450 nm and 570 nm. Absorbance at 570 nm was subtracted from absorbance at 450 nm for each plate.
To assess the ability of undigested fully intact and MMP12 incubated proteins to interact with CD28, binding ELISAs to recombinant human CD28 domain were carried out. In parallel, purified IgG_001 and IgG_002 proteins were used as positive controls while isotype binding was used as negative control.

[2] = molecular target: T1, human/cyno recombinant CD28 protein; experiment: SPR (Biacore 8K), CD28 captured on an anti-His surface, Fab as analyte, multi-cycle kinetics, 1:1 fit
Method: In order to assess the binding of test Fabs to human or mouse CD28 (Acro Biosystems, Newark, USA), multi-cycle kinetic analysis was performed at 25° C. on a Biacore® 8K (serial no. 2724204) HBS-P+ (Cytiva, Marlborough, USA) supplemented with 0.1% BSA (Sigma, Dorset, UK) was used as running buffer as well as for ligand and analyte dilutions. CD28 proteins were diluted to 1.0 μg/mL in running buffer and at the start of each cycle loaded onto Fc2, of a series S CM5 chip (Cytiva, Marlborough, USA) previously coupled with an anti-His capture antibody (Cytiva, Marlborough, USA) using standard amine chemistry. Ligand was captured at a flow rate of 10 μl/min to give an immobilization level (RL) of ~60 RU. The surface was then allowed to stabilize. Multi-cycle kinetic data was obtained antigens as the analyte injected at a flow rate of 30 μl/min to try and minimize any potential mass transfer effects. A 9 point 2-fold dilution of purified Fab titrated from 0.39 nM to 100 nM was prepared in running buffer for Fab proteins. For each concentration, the association phases were monitored for 240 seconds, and the dissociation phase was measured for 900 seconds. Regeneration of the sensor chip surface was conducted between cycles using 10 mM glycine pH 2.1. Multiple repeats of a blank and of antigen were programmed into the kinetic run, in order to check the stability of both the surface and analyte over the kinetic cycles. The signal from the reference Fc1 (no ligand captured) was subtracted from that of Fc2 to correct for bulk effect and differences in non-specific binding to a reference surface. The signal from each blank run (ligand captured but no antigen) was subtracted to correct for differences in surface stability. Binding was analysed using 1:1 binding analysis due to the high affinity interaction between the antibody and antigen. The data was analysed using a procedure referred to as double referencing. This refers to the process of first subtracting the reference channel response (Fc1) and then subtracting the zero concentration sensorgram to compensate for bulk effects, baseline drift and small differences between the reference and the active channel.

[3] = molecular target: T1, human/cyno recombinant CD28 protein; experiment: SPR (Biacore 8K, 25 C), CD28 captured by anti-His antibody, Fab as analyte, 1:1 fit; Fab_002
Method: (§2) In order to assess the binding of test Fabs to human or mouse CD28 (Acro Biosystems, Newark, USA), multi-cycle kinetic analysis was performed at 25° C. on a Biacore® 8K (serial no. 2724204) HBS-P+ (Cytiva, Marlborough, USA) supplemented with 0.1% BSA (Sigma, Dorset, UK) was used as running buffer as well as for ligand and analyte dilutions. CD28 proteins were diluted to 1.0 μg/mL in running buffer and at the start of each cycle loaded onto Fc2, of a series S CM5 chip (Cytiva, Marlborough, USA) previously coupled with an anti-His capture antibody (Cytiva, Marlborough, USA) using standard amine chemistry. Ligand was captured at a flow rate of 10 μl/min to give an immobilization level (RL) of ~60 RU. The surface was then allowed to stabilize. Multi-cycle kinetic data was obtained antigens as the analyte injected at a flow rate of 30 μl/min to try and minimize any potential mass transfer effects. A 9 point 2-fold dilution of purified Fab titrated from 0.39 nM to 100 nM was prepared in running buffer for Fab proteins. For each concentration, the association phases were monitored for 240 seconds, and the dissociation phase was measured for 900 seconds. […] Binding was analysed using 1:1 binding analysis due to the high affinity interaction between the antibody and antigen. The data was analysed using a procedure referred to as double referencing. […]

[4] = molecular target: T2, mouse CD28 recombinant protein (mouse, UniProt P31041 20-150, limits assumed); experiment: SPR (Biacore 8K), CD28 captured on an anti-His surface, Fab as analyte
T2 construct: Bought recombinant protein
Method: as §2

[5] = molecular target: T2, mouse CD28 recombinant protein; experiment: ELISA on coated mouse CD28, absorbance (blank corrected)
Method: as §1

[6] = molecular target: human CD28 in its native form displayed on the cell surface (human, UniProt P10747 19-220); experiment: cell-based or functional assay
[7] = molecular target: T1, human/cyno recombinant CD28 protein; experiment: SPR (Biacore 8K, 25 C), CD28 captured by anti-His antibody, Fab as analyte, 1:1 fit; Fab_001 (CD28 TGN derived sequence)
Method: as §2

B2: Fab_002 (Fab, V domains shown)
VH: QVQLQQSGAELKKPGASVKVSCKASGYTFTEYIIHWIKLRSGQGLEWIGWFYPGSNDIQYNAQFKGKATLTADKSSSTVYMELTGLTPEDSAVYFCARRDDFSGYDALPYWGQGTLVTVSA
VL: DIQMTQSPSSLSASVGDRVTITCKTNENIYSNLAWYQQKDGKSPQLLIYAATHLVEGVPSRFSGSGSGTQYSLTISSLQPEDFGNYYCQHFWGTPCTFGGGTKLEIKR
notes: also called Anti-CD28-2 Fab
Kd [2]: 532 pM
koff [2]: 0.000241 s⁻¹
kon [2]: 454000 M⁻¹ s⁻¹
Kd [3]: 530 pM
binding result [4]: no binding

B3: IgG_002 (antibody, V domains shown)
VH: B2 VH
VL: B2 VL
notes: also called non superagonist CD28 IgG
binding result [5]: no binding (tested: about 300 nM)

Second part, the binder after the results:

binding result [1]: binds
B1: LPD28-3, intact (bispecific antibody, human IgG1, kappa)
heavy: not shown
light: not shown
chain: SCPPCPAPEAAGAPSVFLFPPKPKDTLMISRTPEVTCVVVDVSHEDPEVKFNWYVDGVEVHNAKTKPREEQYNSTYRVVSVLTVLHQDWLNGKEYKCKVSNKALPAPIEKTISKAKGQPREPQVCTLPPSRDELTKNQVSLSCAVKGFYPSDIAVEWESNGQPENNYKTTPPVLDSDGSFFLVSKLTVDKSRWQQGNVFSCSVMHEALHNHYTQKSLSLSPGK
notes: Asymmetric one arm construct: anti-PD-L1 Fab above anti-CD28-2 Fab; also called undigested LPD28-3; LPD28-3 (0 min)

mean IL2 secretion, PBMC of 20 donors on plate-coated protein, 72 h [6]: ~2000 pg/mL
binding result [5]: no binding (tested: about 300 nM)
B4: IgG_001 (antibody, V domains shown)
VH: QVQLVQSGAEVKKPGASVKVSCKASGYTFTSYYIHWVRQAPGQGLEWIGSIYPGNVNTNYNEKEKDRATLTVDTSISTAYMELSRLRSDDTAVYFCTRSHYGLDWNFDVWGQGTTVTVSS
VL: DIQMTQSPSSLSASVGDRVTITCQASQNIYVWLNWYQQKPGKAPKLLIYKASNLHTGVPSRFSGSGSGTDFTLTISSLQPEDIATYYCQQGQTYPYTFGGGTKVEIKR
notes: also called TGN derived CD28 V domain IgG_001 on IgG1-Fc isotype

Kd [7]: 590 pM
Kd [2]: 593 pM
koff [2]: 0.00027 s⁻¹
kon [2]: 455000 M⁻¹ s⁻¹
binding result [4]: no binding
B5: Anti-CD28 Fab-001 (Fab, V domains shown)
VH: B4 VH
VL: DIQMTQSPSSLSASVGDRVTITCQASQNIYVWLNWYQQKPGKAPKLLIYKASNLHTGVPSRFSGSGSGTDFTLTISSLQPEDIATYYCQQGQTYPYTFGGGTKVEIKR
notes: Monovalent Fab
